Results published in patent US20180094053A1 (XOMA US, published 2018).
Residue numbers refer to the chain shown, from its start. Like-named read-outs stand apart in the source and are kept apart here.

B1: XPA.92.019 (antibody, V domains shown)
VH: EVQLVESGGGLVQPGRSLRLSCAASGFTFSYYGMHWVRQAPGKGLEWVADISNDGSNKYYADSVKGRFTISRDNSKTTLYLQMNSLRPEDTAVYYCATPYYDSSGLDYWGQGTLVTVSS
VL: SYELTQPPSVSVSPGQTARITCSGDALPKRFAYWYQQKAGQAPVLVIYEDNKRPSGIPETLSGSSSGTTATLTISGAQEEDEADYYCYSTDNTGGLWVFGGGTKLTVLG
notes: Tested as purified full-length human IgG; also called mAb19
B2: XPA.92.041 (antibody, V domains shown)
VH: EVQLVQSGAEVKKPGESLKISCKGSGYNFDTYWIGWVRQMPGRGLEWMGTIYPADSDTRYSPSFQGQVTTSADKSISTAYLQWGSLRASDTAMYYCARFSSSAYDIWGQGTMVTVSS
VL: SYELTQPPSVSVSPGQTARITCSGDALPRQFAYWYQQKPGQAPVLVIYKDTERPSGIPERFSGSSSGTTVTLTISGVQAEDEADYYCQSADSSGTYHVFGGGTQLTVLG
notes: Tested as purified full-length human IgG
B3: XPA.92.042 (antibody, V domains shown)
VH: B2 VH with A9T, P14A, E16D, T70M
VL: SYELTQPPSVSVSPGQTARITCSGDALPRKFAYWYQQKSGQAPVLVIYQDTKRPSGIPERFSGSSSGTTVTLTISDVQAEDDADYYCQSADRSDSYVFGAGTKLTVLG
notes: as for B2

Key:
Recombinant human IL-2 [1] = molecular target: T1, Recombinant human IL-2 (human, UniProt P60568 21-153); experiment: cell-based or functional assay
Mouse IL-2 [2] = molecular target: T2, Mouse IL-2 (mouse, UniProt P04351 21-169); experiment: listed for comparison in the SPR species cross-reactivity table
T2 sequence (looked up): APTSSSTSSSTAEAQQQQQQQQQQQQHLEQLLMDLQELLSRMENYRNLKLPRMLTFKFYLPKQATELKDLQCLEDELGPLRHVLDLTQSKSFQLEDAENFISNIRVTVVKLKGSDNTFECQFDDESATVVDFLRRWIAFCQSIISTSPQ

Recombinant human IL-2 [3] = molecular target: T1, Recombinant human IL-2; experiment: listed for comparison in the SPR table; method for this antibody not described
Mouse IL-2 [4] = molecular target: T2, Mouse IL-2; experiment: SPR (Biacore 4000), IgG captured on anti-human IgG Fc, IL-2 30 nM to 1 nM; affinity estimate
Procedure: (§1) Antibody affinities were measured by SPR using the Biacore 4000 with a standard capture methodology. Briefly, anti-human IgG (Fc specific) from an anti-human antibody capture kit (Biacore) was immobilized onto spots 1, 2, 4, and 5 of all four flow cells of a CM-5 sensor chip by amine coupling according to the manufacturer's instructions. Running buffer was HBS-EP+ with 1% BSA. […] Data were analyzed using the Biacore 4000 Evaluation software.
(§2) These sequences were imported into vector NTI® (Lifetech) and aligned using the alignx tool.

Rabbit IL-2 = molecular target: T3, Rabbit IL-2 (rabbit, UniProt O77620 21-153, limits assumed); experiment: as above
T3 sequence (looked up): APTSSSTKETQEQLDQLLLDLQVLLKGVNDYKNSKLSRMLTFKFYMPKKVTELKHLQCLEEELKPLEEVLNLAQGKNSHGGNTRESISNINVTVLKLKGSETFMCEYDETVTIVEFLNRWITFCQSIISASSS
Procedure: as §1, §2

Recombinant human IL-2 [5] = molecular target: T1, Recombinant human IL-2; experiment: SPR (Biacore 4000), IgG captured on anti-human IgG Fc, rhIL-2 0.11-10 nM
Procedure: as §1

Recombinant human IL-2 [6] = molecular target: T1, Recombinant human IL-2; experiment: cell-based or functional assay; remark: listed apart in the source
Recombinant human IL-2 [7] = molecular target: T1, Recombinant human IL-2; experiment: cell-based or functional assay; remark: listed apart in the source
Recombinant human IL-2 [8] = molecular target: T1, Recombinant human IL-2; experiment: cell-based or functional assay; remark: listed apart in the source
Recombinant human IL-2 [9] = molecular target: T1, Recombinant human IL-2; experiment: cell-based or functional assay; remark: listed apart in the source
CHOk1-IL2Ralpha = molecular target: T4, CHOk1-IL2Ralpha; experiment: flow cytometry, IgG binding (MFI); antibody titrated on CHOk1-IL2Ralpha cells without IL2
T4 construct: clone number not given; also called CHO/Rα; CHO/IL-2 Rα
T4 chain: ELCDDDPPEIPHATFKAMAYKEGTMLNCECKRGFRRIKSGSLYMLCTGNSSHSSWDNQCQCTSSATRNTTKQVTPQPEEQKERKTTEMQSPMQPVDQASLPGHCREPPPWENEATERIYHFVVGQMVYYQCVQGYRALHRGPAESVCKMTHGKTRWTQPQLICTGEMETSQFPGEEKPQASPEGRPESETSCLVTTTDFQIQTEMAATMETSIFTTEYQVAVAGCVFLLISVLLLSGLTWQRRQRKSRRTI
Procedure: (§3) After phage-derived antibody fragments were reformatted into full-length human IgGs, the purified antibodies were screened on CHO/Rα, CHO/Rβ, CHO/Rβγ, and parental CHO-K1 cells grown and stained as described above. […] This was allowed to incubate at 4° C. for 1 to 1.5 hours. Bound antibody was detected by the addition of anti-human heavy chain and light chain (Jackson Immuno Research #109-136-088) at 1:1000 and incubating at 4° C. for 30 minutes to 1 hour. Samples were analyzed using BD FACs Canto flow cytometer.

Recombinant human IL-2 [10] = molecular target: T1, Recombinant human IL-2; experiment: cell-based or functional assay; remark: listed apart in the source
Rat IL-2 = molecular target: T5, Rat IL-2 (rat, UniProt P17108 21-155); experiment: SPR (Biacore 4000), IgG captured on anti-human IgG Fc, IL-2 30 nM to 1 nM; affinity estimate
T5 sequence (looked up): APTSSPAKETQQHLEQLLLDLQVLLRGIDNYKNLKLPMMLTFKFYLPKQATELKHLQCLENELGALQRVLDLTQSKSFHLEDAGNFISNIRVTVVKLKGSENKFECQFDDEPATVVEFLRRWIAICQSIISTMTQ
Procedure: as §1, §2

[11] = molecular target: T6, human IL-2 Rβγ (IL-2 Rβ and γc) on cells (human, UniProt P14784 27-551; P31785 23-369); experiment: flow cytometry, IgG binding (MFI); antibody titrated on CHOk1-IL2Rbeta-gamma (20-21) cells without IL2
T6 construct: whole, on cells; on CD25-depleted human primary NK cells in the pSTAT5 assay; also called CHO/Rβγ; CHO/IL-2 Rβγ (#20-21)
T6 sequence (looked up) 1: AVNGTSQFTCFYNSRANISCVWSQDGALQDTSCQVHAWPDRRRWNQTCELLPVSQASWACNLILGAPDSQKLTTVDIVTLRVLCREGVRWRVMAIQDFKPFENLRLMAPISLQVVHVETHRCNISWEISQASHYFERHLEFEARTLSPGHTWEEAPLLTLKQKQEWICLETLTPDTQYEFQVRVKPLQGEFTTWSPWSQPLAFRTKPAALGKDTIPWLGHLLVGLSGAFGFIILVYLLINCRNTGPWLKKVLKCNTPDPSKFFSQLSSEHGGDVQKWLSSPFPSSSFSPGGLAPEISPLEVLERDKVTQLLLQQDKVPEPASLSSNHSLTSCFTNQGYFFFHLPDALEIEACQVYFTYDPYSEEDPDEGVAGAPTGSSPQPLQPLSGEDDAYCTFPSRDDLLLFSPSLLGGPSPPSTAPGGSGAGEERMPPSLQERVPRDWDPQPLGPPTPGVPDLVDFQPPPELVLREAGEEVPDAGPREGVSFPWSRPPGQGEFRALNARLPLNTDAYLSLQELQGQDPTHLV
T6 sequence (looked up) 2: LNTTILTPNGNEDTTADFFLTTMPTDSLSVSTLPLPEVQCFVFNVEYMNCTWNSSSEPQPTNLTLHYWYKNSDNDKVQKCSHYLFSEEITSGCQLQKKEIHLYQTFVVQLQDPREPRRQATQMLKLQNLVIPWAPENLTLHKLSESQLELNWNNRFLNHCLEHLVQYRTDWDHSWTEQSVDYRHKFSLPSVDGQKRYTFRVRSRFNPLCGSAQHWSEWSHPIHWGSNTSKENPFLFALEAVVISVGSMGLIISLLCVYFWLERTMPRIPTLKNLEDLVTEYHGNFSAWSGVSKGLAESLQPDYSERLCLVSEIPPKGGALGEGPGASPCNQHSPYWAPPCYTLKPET
Procedure: as §3

Row | Molecule | Kd (Mouse IL-2 [4]) | Kd (Rabbit IL-2) | Kd (Recombinant human IL-2 [5]) | koff (Recombinant human IL-2 [5]) | kon (Recombinant human IL-2 [5]) | Fold EC50 shift of IL-2-induced proliferation, BaF3/IL-2 HuRβγ (Recombinant human IL-2 [6]) | Fold EC50 shift of IL-2-induced proliferation, NK92 (huRαβγ) (Recombinant human IL-2 [6]) | Ratio (huRαβγ/Rβγ) of fold EC50 shifts, proliferation (Recombinant human IL-2 [6]) | pSTAT5a,b Ratio of EC50s (Rαβγ/Rβγ), murine cells (Recombinant human IL-2 [7]) | pSTAT5a,b fold EC50 shift, CTLL-2 (muRαβγ) (Recombinant human IL-2 [7]) | pSTAT5a,b fold EC50 shift, Mouse Primary NK cells (muβγ) (Recombinant human IL-2 [7]) | Fold EC50 shift of IL-2-induced proliferation, CTLL-2 (muRαβγ) (Recombinant human IL-2 [8]) | pSTAT5a,b Ratio of EC50s (Rαβγ/Rβγ), human cells (Recombinant human IL-2 [9]) | pSTAT5a,b fold EC50 shift, Human Primary NK cells (huRβγ) (Recombinant human IL-2 [9]) | pSTAT5a,b fold EC50 shift, NK92 (huRαβγ) (Recombinant human IL-2 [9]) | binding result (CHOk1-IL2Ralpha) | EC50 of IL-2-induced pSTAT5a,b in CD25-depleted human primary NK cells with 100 nM antibody (Recombinant human IL-2 [10]) | EC50 of IL-2-induced pSTAT5a,b in NK-92 cells with 100 nM antibody (Recombinant human IL-2 [10]) | EC50 of IL-2-induced pSTAT5a,b in mouse primary NK cells with 100 nM antibody (Recombinant human IL-2 [10]) | Kd (Rat IL-2) | further results
1 | MAB602 (antibody) |  |  |  |  |  |  |  |  |  |  |  |  |  |  |  |  |  |  |  |  | EC50 of IL-2-induced pSTAT5a,b in NK-92 cells with 100 nM antibody (Recombinant human IL-2 [1]): 900 pM; EC50 of IL-2-induced pSTAT5a,b in mouse primary NK cells with 100 nM antibody (Recombinant human IL-2 [1]): 361 pM; Kd (Mouse IL-2 [2]): 10 nM; Kd (Recombinant human IL-2 [3]): 0.12 nM
2 | B1 | 100 nM | 0.2 nM | 0.0095 nM | 3.4e-05 s⁻¹ | 3.7e+06 M⁻¹ s⁻¹ | 5.2 fold | 33 fold | 6 | 35 | 523 fold | 15 fold | 130 fold | 24 | 40 fold | 966 fold | no binding | 5040 pM | 900 pM | 1720 pM |  | 
3 | B2 | 40 nM | 0.5 nM | 0.058 nM | 0.00032 s⁻¹ | 5.6e+06 M⁻¹ s⁻¹ | 3.9 fold | 35 fold | 9 | 34 | 404 fold | 12 fold | 58 fold | 35 | 35 fold | 1230 fold | no binding | 4520 pM | 1150 pM | 1350 pM | 1 nM | binding result [11]: no binding
4 | B3 | 10 nM | 0.6 nM | 0.028 nM | 0.00025 s⁻¹ | 8.9e+06 M⁻¹ s⁻¹ | 5 fold | 52 fold | 10 | 57 | 793 fold | 14 fold | 156 fold | 45 | 41 fold | 1860 fold | no binding | 5120 pM | 1700 pM | 1660 pM | 6 nM | binding result [11]: no binding
